Reference: article PMC9440123, “Rtt105 regulates RPA function by configurationally stapling the flexible domains” (Nature Communications, 2022)

Key:
RPA (RPA70/RPA32/RPA14) [1] = molecular target: T1, RPA (RPA70/RPA32/RPA14) (Saccharomyces cerevisiae, UniProt P22336;P26754;P26755 1-621;1-273;1-122); assay: fluorescence anisotropy; ~2 RPA per DNA; EMSA: 25 mM Tris-Cl pH 7.5, 200 mM NaCl, 5 mM MgCl2, 5% glycerol, 0.05% Tween-20, 25 C; anisotropy/FRET: 30 mM HEPES pH 7.8, 100 mM KCl, 6% glycerol, 5 mM MgCl2, 1 mM bME, 23 C (stopped flow 25 C); settings: protein: recombinant; copies: 1;1;1
T1 sequence (P22336 whole entry, chain 1 of 3): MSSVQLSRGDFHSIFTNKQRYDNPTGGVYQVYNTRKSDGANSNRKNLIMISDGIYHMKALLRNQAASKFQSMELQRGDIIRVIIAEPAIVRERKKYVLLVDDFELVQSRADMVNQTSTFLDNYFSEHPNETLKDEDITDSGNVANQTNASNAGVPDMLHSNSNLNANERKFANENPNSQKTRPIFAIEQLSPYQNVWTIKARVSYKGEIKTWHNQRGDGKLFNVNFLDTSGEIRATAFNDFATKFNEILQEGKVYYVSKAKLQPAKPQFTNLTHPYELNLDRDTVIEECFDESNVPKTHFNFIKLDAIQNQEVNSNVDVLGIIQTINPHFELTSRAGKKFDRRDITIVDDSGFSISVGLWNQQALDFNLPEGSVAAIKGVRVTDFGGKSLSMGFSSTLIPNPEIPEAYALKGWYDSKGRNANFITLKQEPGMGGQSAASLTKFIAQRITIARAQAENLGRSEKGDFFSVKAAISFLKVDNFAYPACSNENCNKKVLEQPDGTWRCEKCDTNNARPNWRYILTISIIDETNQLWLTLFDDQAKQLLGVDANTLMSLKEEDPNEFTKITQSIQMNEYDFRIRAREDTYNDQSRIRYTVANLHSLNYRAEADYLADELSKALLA
T1 sequence (P26754 whole entry, chain 2 of 3): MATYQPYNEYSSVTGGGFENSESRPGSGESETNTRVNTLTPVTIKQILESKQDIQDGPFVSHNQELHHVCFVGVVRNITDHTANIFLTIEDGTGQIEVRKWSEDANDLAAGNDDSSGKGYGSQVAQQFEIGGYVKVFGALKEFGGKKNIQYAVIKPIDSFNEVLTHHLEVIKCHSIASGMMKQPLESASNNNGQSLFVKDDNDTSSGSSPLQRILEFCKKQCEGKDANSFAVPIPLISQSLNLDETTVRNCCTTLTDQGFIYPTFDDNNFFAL
T1 sequence (P26755 whole entry, chain 3 of 3): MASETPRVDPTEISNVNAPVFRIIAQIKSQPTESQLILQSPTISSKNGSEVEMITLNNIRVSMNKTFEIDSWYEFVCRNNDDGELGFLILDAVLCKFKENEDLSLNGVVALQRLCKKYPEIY

[2] = molecular target: T2, RPA-DBD-D-Cy3;Rtt105-Cy5 (C13S) (Saccharomyces cerevisiae;Saccharomyces …, UniProt P22336;P26754;P26755;P40063 1-621;1-273;1-122;1-208, |C13S); assay: FRET titration; ssDNA-induced Rtt105 release from preformed RPA-Rtt105 (200 nM each); EMSA: 25 mM Tris-Cl pH 7.5, 200 mM NaCl, 5 mM MgCl2, 5% glycerol, 0.05% Tween-20, 25 C; anisotropy/FRET: 30 mM HEPES pH 7.8, 100 mM KCl, 6% glycerol, 5 mM MgCl2, 1 mM bME, 23 C (stopped flow 25 C); settings: protein: recombinant;recombinant; tags: Cy3 on DBD-D via 4AZP;Cy5 on Cys12; copies: 1;1;1;1
T2 sequence (P22336 whole entry, chain 1 of 4): as the sequence (P22336 whole entry, chain 1 of 3) above
T2 sequence (P26754 whole entry, chain 2 of 4): as the sequence (P26754 whole entry, chain 2 of 3) above
T2 sequence (P26755 whole entry, chain 3 of 4): as the sequence (P26755 whole entry, chain 3 of 3) above
T2 sequence (P40063 whole entry C13S, chain 4 of 4): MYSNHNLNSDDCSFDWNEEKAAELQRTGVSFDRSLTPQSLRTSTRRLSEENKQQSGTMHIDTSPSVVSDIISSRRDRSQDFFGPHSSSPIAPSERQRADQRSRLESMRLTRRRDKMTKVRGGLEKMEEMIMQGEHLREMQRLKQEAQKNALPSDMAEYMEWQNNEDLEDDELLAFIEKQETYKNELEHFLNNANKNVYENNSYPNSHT

[3] = molecular target: T3, RPA (RPA70/RPA32/RPA14);Rtt105 (Saccharomyces cerevisiae;Saccharomyces …, UniProt P22336;P26754;P26755;P40063 1-621;1-273;1-122;1-208, |); assay: SEC; [RPA]2-(dT)70 without Rtt105, plus Rtt105-RPA-(dT)70; EMSA: 25 mM Tris-Cl pH 7.5, 200 mM NaCl, 5 mM MgCl2, 5% glycerol, 0.05% Tween-20, 25 C; anisotropy/FRET: 30 mM HEPES pH 7.8, 100 mM KCl, 6% glycerol, 5 mM MgCl2, 1 mM bME, 23 C (stopped flow 25 C); settings: protein: recombinant;recombinant; tags: ;; copies: 1;1;1;1
T3 sequence (P22336 whole entry, chain 1 of 4): as the sequence (P22336 whole entry, chain 1 of 3) above
T3 sequence (P26754 whole entry, chain 2 of 4): as the sequence (P26754 whole entry, chain 2 of 3) above
T3 sequence (P26755 whole entry, chain 3 of 4): as the sequence (P26755 whole entry, chain 3 of 3) above
T3 sequence (P40063 whole entry, chain 4 of 4): as the sequence (P40063 whole entry C13S, chain 4 of 4) above, with S13C counted along it

RPA (RPA70/RPA32/RPA14) [4] = molecular target: T1, RPA (RPA70/RPA32/RPA14); assay: fluorescence anisotropy; no Rtt105; 5 mM MgCl2; stoichiometric, apparent Kd; EMSA: 25 mM Tris-Cl pH 7.5, 200 mM NaCl, 5 mM MgCl2, 5% glycerol, 0.05% Tween-20, 25 C; anisotropy/FRET: 30 mM HEPES pH 7.8, 100 mM KCl, 6% glycerol, 5 mM MgCl2, 1 mM bME, 23 C (stopped flow 25 C); settings: protein: recombinant; copies: 1;1;1
[5] = molecular target: T3, RPA (RPA70/RPA32/RPA14);Rtt105; assay: fluorescence anisotropy; Rtt105 1:1; 5 mM MgCl2; stoichiometric, apparent Kd; EMSA: 25 mM Tris-Cl pH 7.5, 200 mM NaCl, 5 mM MgCl2, 5% glycerol, 0.05% Tween-20, 25 C; anisotropy/FRET: 30 mM HEPES pH 7.8, 100 mM KCl, 6% glycerol, 5 mM MgCl2, 1 mM bME, 23 C (stopped flow 25 C); settings: protein: recombinant;recombinant; tags: ;; copies: 1;1;1;1
[6] = molecular target: T2, RPA-DBD-D-Cy3;Rtt105-Cy5 (C13S); assay: FRET titration; ssDNA-induced remodeling of preformed RPA-Rtt105 (200 nM each); EMSA: 25 mM Tris-Cl pH 7.5, 200 mM NaCl, 5 mM MgCl2, 5% glycerol, 0.05% Tween-20, 25 C; anisotropy/FRET: 30 mM HEPES pH 7.8, 100 mM KCl, 6% glycerol, 5 mM MgCl2, 1 mM bME, 23 C (stopped flow 25 C); settings: protein: recombinant;recombinant; tags: Cy3 on DBD-D via 4AZP;Cy5 on Cys12; copies: 1;1;1;1

B1: (dT)70 (ssDNA)
DNA: TTTTTTTTTTTTTTTTTTTTTTTTTTTTTTTTTTTTTTTTTTTTTTTTTTTTTTTTTTTTTTTTTTTTTT
Q: Does B1 bind (RPA (RPA70/RPA32/RPA14) [1])?
A: Result: binds

Q: What about the “apparent K (half saturation)” value [2] of the same binder?
A: The value was 42.8 ± 0.37 nM.

Q: Does B1 bind [3]?
A: Result: binds

Q: Which Kd (RPA (RPA70/RPA32/RPA14) [4]) does the source give for TTTTTTTTTTTTTTTTTTTTTTTTTTTTTTTTTTT (ssDNA) [FAM-(dT)35] here?
A: Its Kd is 4 ± 1.3 nM.

Q: What about the Kd [5] of the same binder?
A: The Kd was 2.4 ± 1.2 nM.

Q: TTTTTTTTTTTTTTTTTTTTTTTTTTTTTTTTTTT (ssDNA) [(dT)35] was tested. Which “apparent K (half saturation)” value [6] did it give?
A: Its value is 130 ± 10.5 nM.
